# Results taken from patent US20250002564A1 (HOSPITAL FOR SICK CHILDREN, published 2025).
# Where two headings read alike, the source gives them in different places.
# Assays:
# [1] = target: T1, SARS-CoV-2 receptor binding domain (RBD), wild type, His-tagged (SARS-CoV-2, UniProt P0DTC2 319-541); test: method and format not given
# T1 construct: domain: RBD; also called His-tagged RBD; BEI NR52309
# [2] = target: T1, SARS-CoV-2 receptor binding domain …; test: method and format not given; remark: listed apart in the source
# [3] = target: T2, SARS-CoV-2 prefusion S ectodomain (Spike trimer), His-tagged (SARS-CoV-2, UniProt P0DTC2 14-1213); test: BLI, His-tagged Spike on Ni-NTA sensor
# T2 construct: extracellular domain; also called SARS-CoV-2 Spike; S protein
# [4] = target: T1, SARS-CoV-2 receptor binding domain …; test: BLI competition on His-tagged RBD, after 1st Ab 324
# [5] = target: T1, SARS-CoV-2 receptor binding domain …; test: BLI competition on His-tagged RBD, after 1st Ab 80
# [6] = target: T1, SARS-CoV-2 receptor binding domain …; test: BLI competition on His-tagged RBD, after 1st Ab 52
# [7] = target: T1, SARS-CoV-2 receptor binding domain …; test: BLI competition on His-tagged RBD, after 1st Ab 82
# [8] = target: T1, SARS-CoV-2 receptor binding domain …; test: BLI competition on His-tagged RBD, after 1st Ab 236
# [9] = target: T1, SARS-CoV-2 receptor binding domain …; test: BLI competition on His-tagged RBD, after 1st Ab 46
# [10] = target: T1, SARS-CoV-2 receptor binding domain …; test: BLI competition on His-tagged RBD, after 1st Ab 298
binder,measurement,setting,value
"mAb 120 (antibody, V domains shown, also called IgG 120; Antibody 120) VH: QVQLVQSGAEVKKPGASVKVSCKASGYTFTSYDINWVRQAPGQGLEWMGMIDPSGGSTSYAQKFQGRVTMTRDTSTSTVYMELSSLRSEDTAVYYCAKDFGGGTRYDYWYFDLWGRGTLVTVSS VL: EIVMTQSPATLSVSPGERATLSCRASQSVSSRYLAWYQQKPGQAPRLLIYGASTRATGIPARFSGSGSGTEFTLTISSLQSEDFAVYYCQQYYTTPRTFGQGTRLEIKR",Kd,[1],24 nM
same,Kd,[2],24 nM
"4A8 IgG (antibody, V domains shown, also called IgG 4A8) VH: EVQLVESGAEVKKPGASVKVSCKVSGYTLTELSMHWVRQAPGKGLEWMGGFDPEDGETMYAQKFQGRVTMTEDTSTDTAYMELSSLRSEDTAVYYCATSTAVAGTPDLFDYYYGMDVWGQGTTVTVSS VL: EIVMTQSPLSSPVTLGQPASISCRSSQSLVHSDGNTYLSWLQQRPGQPPRLLIYKISNRFSGVPDRFSGSGAGTDFTLKISRVEAEDVGVYYCTQATQFPYTFGQGTKVDIK",Kd,[3],1.42 nM
same,koff,[3],0.000191 s⁻¹
same,kon,[3],133000 M⁻¹ s⁻¹
"mAb 46 (antibody, V domains shown, also called IgG 46; Antibody 46) VH: EVQLLESGGGLVQPGRSLRLSCAASGFTFSSYAMSWVRQAPGKGLEWVSTIYSGGSTYYADSVKGRFTISRDNSKNTLYLQMNSLRAEDTAVYYCARGDSRDAFDIWGQGTMVTVSS VL: DIQMTQSPSSLSASVGDRVTITCRASQSISSWLAWYQQKPGKAPKLLIYDASNLETGVPSRFSGSGSGTDFTLTISSLQPEDFATYYCQQSYSTPFTFGPGTKVDIKR",Kd,[1],83 nM
same,RBD binding of 2nd Ab after 1st Ab (heat map),[4],1.7
same,Kd,[2],83 nM
same,RBD binding of 2nd Ab after 1st Ab (heat map),[5],1.3
same,RBD binding of 2nd Ab after 1st Ab (heat map),[6],0.2
same,RBD binding of 2nd Ab after 1st Ab (heat map),[7],1.2
same,RBD binding of 2nd Ab after 1st Ab (heat map),[8],1.7
same,RBD binding of 2nd Ab after 1st Ab (heat map),[9],0.2
same,RBD binding of 2nd Ab after 1st Ab (heat map),[10],1.7
"mAb 108 (antibody, V domains shown) VH: QVQLVQSGAEVKKPGASVKVSCKASGYIFSRYAIHWVRQAPGQGLEWMGWMNPISGNTDYAPNFQGRVTMTRDTSTSTVYMELSSLRSEDTAVYYCAKDGSQLAYLVEYFQHWGQGTLVTVSS VL: DIQMTQSPSSLSASVGDRVTITCRASQVITNNLAWYQQKPGKAPKLLIYDASTLETGVPSRFSGSGSGTDFTLTISSLQPEDFATYYCQQSYTFPYTFGQGTKVEIKR",Kd,[1],72 nM
same,Kd,[2],72 nM
"mAb 56 (antibody, V domains shown, also called IgG 56; Antibody 56) VH: QVQLVQSGAEVKKPGASVKVSCKASGYTFTSYGISWVRQAPGQGLEWMGWISAYNGNTNYAQKLQGRVTMTRDTSTSTVYMELSSLRSEDTAVYYCARDIGPIDYWGQGTLVTVSS VL: DIQMTQSPSSLSASVGDRVTITCRASQGISSYLAWYQQKPGKAPKLLIYDASNLQSGVPSRFSGSGSGTDFTLTISSLQPEDFATYYCQQANSFPSTFGQGTKVEIKR",Kd,[1],23 nM
same,Kd,[2],23 nM
"mAb 349 (antibody, V domains shown, also called IgG 349; Antibody 349) VH: EVQLLESGGGLVQPGGSLRLSCAASGFTFSNYGMHWVRQAPGKGLEWVSGISSAGSITNYADSVKGRFTISRDNSKNTLYLQMNSLRAEDTAVYYCAGNHAGTTVTSEYFQHWGQGTLVTVSS VL: DIQMTQSPSSLSASVGDRVTITCRASQSISSWLAWYQQKPGKAPKLLIYDTSNLETGVPSRFSGSGSGTDFTLTISSLQPEDFATYYCQQSYTTPWTFGQGTRLEIKR",Kd,[1],74 nM
same,Kd,[2],74 nM
"mAb 64 (antibody, V domains shown, also called IgG 64; Antibody 64) VH: EVQLLESGGGLVQPGGSLRLSCAASGFPFSQHGMHWVRQAPGKGLEWVSAIDRSGSYIYYADSVKGRFTISRDNSKNTLYLQMNSLRAEDTAVYYCARDTYGGKVTYFDYWGQGTLVTVSS VL: DIQMTQSPSSLSASVGDRVTITCRASQGISSHLAWYQQKPGKAPKLLIYDASNLETGVPSRFSGSGSGTDFTLTISSLQPEDFATYYCQQTYSTPWTFGQGTKVEIKR",Kd,[1],97 nM
same,Kd,[2],97 nM
"mAb 158 (antibody, V domains shown, also called IgG 158; Antibody 158) VH: QVQLVQSGAEVKKPGASVKVSCKASGYTFTGYYMHWVRQAPGQGLEWMGWINPLNGGTNFAPKFQGRVTMTRDTSTSTVYMELSSLRSEDTAVYYCARDPGGSYSNDAFDIWGQGTLVTVSS VL: DIQMTQSPSSLSASVGDRVTITCRASQSISRYLNWYQQKPGKAPKLLIYDASNLESGVPSRFSGSGSGTDFTLTISSLQPEDFATYYCQQANSFPLTFGGGTKVDIKR",Kd,[1],172 nM
same,Kd,[2],172 nM
"mAb 82 (antibody, V domains shown, also called IgG 82; Antibody 82) VH: QVQLVQSGAEVKKPGASVKVSCKASGGSFSTSAFYWVRQAPGQGLEWMGWINPYTGGTNYAQKFQGRVTMTRDTSTSTVYMELSSLRSEDTAVYYCARSRALYGSGSYFDYWGQGTLVTVSS VL: DIQMTQSPSSLSASVGDRVTITCRASQVISNYLAWYQQKPGKAPKLLIYDASNLETGVPSRFSGSGSGTDFTLTISSLQPEDFATYYCQQSFSPPPTFGQGTRLEIKR",Kd,[1],206 nM
same,RBD binding of 2nd Ab after 1st Ab (heat map),[4],0.8
same,Kd,[2],206 nM
same,RBD binding of 2nd Ab after 1st Ab (heat map),[5],0.6
same,RBD binding of 2nd Ab after 1st Ab (heat map),[6],0.6
same,RBD binding of 2nd Ab after 1st Ab (heat map),[7],0.4
same,RBD binding of 2nd Ab after 1st Ab (heat map),[8],0.6
same,RBD binding of 2nd Ab after 1st Ab (heat map),[9],1.4
same,RBD binding of 2nd Ab after 1st Ab (heat map),[10],0.5
"mAb 324 (antibody, V domains shown, also called IgG 324; Antibody 324) VH: QVQLVQSGAEVKKPGASVKVSCKASGGTFNNYGISWVRQAPGQGLEWMGWMNPNSGNTGYAQKFQGRVTMTRDTSTSTVYMELSSLRSEDTAVYYCARVGDYGDYIVSPFDLWGRGTLVTVSS VL: DIQMTQSPSSLSASVGDRVTITCRASQSITTYLNWYQQKPGKAPKLLIYDASNLETGVPSRFSGSGSGTDFTLTISSLQPEDFATYYCQQSYSTPPTFGQGTKVEIKR",Kd,[1],111 nM
same,RBD binding of 2nd Ab after 1st Ab (heat map),[4],0.4
same,Kd,[2],111 nM
same,RBD binding of 2nd Ab after 1st Ab (heat map),[5],0.1
same,RBD binding of 2nd Ab after 1st Ab (heat map),[6],1
same,RBD binding of 2nd Ab after 1st Ab (heat map),[7],0.2
same,RBD binding of 2nd Ab after 1st Ab (heat map),[8],0.3
same,RBD binding of 2nd Ab after 1st Ab (heat map),[9],1.2
same,RBD binding of 2nd Ab after 1st Ab (heat map),[10],0.2
"mAb 178 (antibody, V domains shown, also called IgG 178; Antibody 178) VH: QVQLVQSGAEVKKPGASVKVSCKASGYTFTDYHMHWVRQAPGQGLEWMGWINPNSGGTNYAQKFQGRVTMTRDTSTSTVYMELSSLRSEDTAVYYCARDISSWYEITKFDPWGQGTLVTVSS VL: EIVMTQSPATLSVSPGERATLSCKASQSVSGTYLAWYQQKPGQAPRLLIYGASTRATGIPARFSGSGSGTEFTLTISSLQSEDFAVYYCLQTHSYPPTFGQGTKVEIKR",Kd,[1],72 nM
same,Kd,[2],72 nM
"mAb 160 (antibody, V domains shown, also called IgG 160; Antibody 160) VH: QVQLVQSGAEVKKPGASVKVSCKASGYTFTGHDMHWVRQAPGQGLEWMGIINPSGGSTSYAQKFQGRVTMTRDTSTSTVYMELSSLRSEDTAVYYCARANSLRYYYGMDVWGQGTMVTVSS VL: DIQMTQSPSSLSASVGDRVTITCRASQSVSSWLAWYQQKPGKAPKLLIYAASSLQSGVPSRFSGSGSGTDFTLTISSLQPEDFATYYCQQGYTTPYTFGQGTKLEIKR",Kd,[1],7.7 nM
same,Kd,[2],7.7 nM
"mAb 52 (antibody, V domains shown, also called IgG 52; Antibody 52) VH: QVQLVQSGAEVKKPGSSVKVSCKASGYTFTSYGISWVRQAPGQGLEWMGGIIPMFGTTNYAQKFQGRVTITADKSTSTAYMELSSLRSEDTAVYYCARDRGDTIDYWGQGTLVTVSS VL: DIQMTQSPSSLSASVGDRVTITCRASQGISNNLNWYQQKPGKAPKLLIYAASSLESGVPSRFSGSGSGTDFTLTISSLQPEDFATYYCQQGNGFPLTFGPGTKVDIKR",RBD binding of 2nd Ab after 1st Ab (heat map),[4],1.5
same,RBD binding of 2nd Ab after 1st Ab (heat map),[5],1.3
same,RBD binding of 2nd Ab after 1st Ab (heat map),[6],0.4
same,RBD binding of 2nd Ab after 1st Ab (heat map),[7],0.8
same,RBD binding of 2nd Ab after 1st Ab (heat map),[8],1.5
same,RBD binding of 2nd Ab after 1st Ab (heat map),[9],0.5
same,RBD binding of 2nd Ab after 1st Ab (heat map),[10],1.4
"mAb 254 (antibody, V domains shown, also called IgG 254; Antibody 254) VH: EVQLLESGGGLVQPGGSLRLSCAASGFTFSSSAMHWVRQAPGKGLEWVSAIGTGGDTYYADSVKGRFTISRDNSKNTLYLQMNSLRAEDTAVYYCAREGDGYNFYFDYWGQGTLVTVSS VL: DIQMTQSPSSLSASVGDRVTITCRASQGISSYLAWYQQKPGKAPKLLIYDASSLQIGVPSRFSGSGSGTDFTLTISSLQPEDFATYYCLQSYSTPPWTFGQGTKVEIKR",Kd,[1],127 nM
same,Kd,[2],127 nM
"mAb 128 (antibody, V domains shown) VH: QVQLVQSGAEVKKPGASVKVSCKASGYTFTHYYMHWVRQAPGQGLEWMGIINPSSSSASYSQKFQGRVTMTRDTSTSTVYMELSSLRSEDTAVYYCARDGRYGSGSYPFDYWGQGTLVTVSS VL: DIQMTQSPSSLSASVGDRVTITCRASQNISRYLNWYQQKPGKAPKLLIYDASNLETGVPSRFSGSGSGTDFTLTISSLQPEDFATYYCQQANGFPPTFGQGTKLEIKR",Kd,[1],57 nM
same,Kd,[2],57 nM
